Measured values published in article PMC5467213, “Architecture of the RNA polymerase II-Paf1C-TFIIS transcription elongation complex” (Nature Communications, 2017).

Assays:
[1] = molecular target: T1, Ctr9-ΔC913 (S. cerevisiae, UniProt P89105 1-913); assay: cross-linking; Pol II-Paf1C-TFIIS EC after SEC, 425 μg/ml, 0.5 mM BS3, 30 min, 30 °C; trypsin, Orbitrap Fusion LC-MS/MS, pLink, FDR 1%; details: both partners purified
T1 construct: Ctr9, S. cerevisiae, variant lacking 164 amino acids at its C terminus (Ctr9-ΔC913); also called Ctr9 (in the Pol II-Paf1C-TFIIS EC); source: E. coli BL21 CodonPlus(DE3)RIL, coexpressed with the other subunits; in lysate and purified as part of Paf1C-Ctr9-ΔC913
T1 sequence (looked up): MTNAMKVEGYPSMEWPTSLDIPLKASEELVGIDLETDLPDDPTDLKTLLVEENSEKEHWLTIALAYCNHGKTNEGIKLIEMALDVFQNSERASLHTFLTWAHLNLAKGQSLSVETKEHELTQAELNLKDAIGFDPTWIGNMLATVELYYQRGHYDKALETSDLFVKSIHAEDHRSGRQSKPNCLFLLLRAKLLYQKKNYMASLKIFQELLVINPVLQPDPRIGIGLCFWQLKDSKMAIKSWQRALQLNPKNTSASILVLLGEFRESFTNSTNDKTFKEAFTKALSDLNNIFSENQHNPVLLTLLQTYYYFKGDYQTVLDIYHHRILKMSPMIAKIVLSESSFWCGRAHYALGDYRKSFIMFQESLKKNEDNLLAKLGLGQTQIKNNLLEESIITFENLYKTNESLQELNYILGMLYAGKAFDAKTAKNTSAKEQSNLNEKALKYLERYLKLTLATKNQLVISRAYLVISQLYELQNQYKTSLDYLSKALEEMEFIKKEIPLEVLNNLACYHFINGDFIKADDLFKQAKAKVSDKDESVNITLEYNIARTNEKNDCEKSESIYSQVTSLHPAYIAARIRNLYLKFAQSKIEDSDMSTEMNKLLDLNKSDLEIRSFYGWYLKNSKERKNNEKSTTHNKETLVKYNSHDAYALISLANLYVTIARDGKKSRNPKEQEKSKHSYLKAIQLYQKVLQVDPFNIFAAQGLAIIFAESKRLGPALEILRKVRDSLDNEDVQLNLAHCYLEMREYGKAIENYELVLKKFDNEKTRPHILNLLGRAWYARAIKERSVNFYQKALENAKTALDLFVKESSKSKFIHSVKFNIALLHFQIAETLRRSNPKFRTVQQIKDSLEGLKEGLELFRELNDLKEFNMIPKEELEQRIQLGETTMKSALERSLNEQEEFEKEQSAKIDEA

[2] = molecular target: T2, Rtf1 (S. cerevisiae, UniProt P53064 1-558); assay: as above; details: both partners purified
T2 construct: Rtf1, S. cerevisiae, full length, amplified from genomic DNA; source: E. coli BL21 CodonPlus(DE3)RIL, coexpressed with Cdc73; in lysate and purified as part of Paf1C

[3] = molecular target: T3, Rpb2 (Pol II subunit) (yeast, UniProt P08518 1-1224); assay: as above; details: both partners purified
T3 construct: Rpb2, subunit of yeast Pol II; source: part of purified Pol II

[4] = molecular target: T4, Leo1 (S. cerevisiae, UniProt P38439 1-464); assay: as above; details: both partners purified
T4 construct: Leo1, S. cerevisiae, open reading frame chemically synthesized (codon-optimised), in pCDFDuet-1; source: E. coli BL21 CodonPlus(DE3)RIL, coexpressed with the other subunits; in lysate and purified as part of Paf1C
T4 sequence (looked up): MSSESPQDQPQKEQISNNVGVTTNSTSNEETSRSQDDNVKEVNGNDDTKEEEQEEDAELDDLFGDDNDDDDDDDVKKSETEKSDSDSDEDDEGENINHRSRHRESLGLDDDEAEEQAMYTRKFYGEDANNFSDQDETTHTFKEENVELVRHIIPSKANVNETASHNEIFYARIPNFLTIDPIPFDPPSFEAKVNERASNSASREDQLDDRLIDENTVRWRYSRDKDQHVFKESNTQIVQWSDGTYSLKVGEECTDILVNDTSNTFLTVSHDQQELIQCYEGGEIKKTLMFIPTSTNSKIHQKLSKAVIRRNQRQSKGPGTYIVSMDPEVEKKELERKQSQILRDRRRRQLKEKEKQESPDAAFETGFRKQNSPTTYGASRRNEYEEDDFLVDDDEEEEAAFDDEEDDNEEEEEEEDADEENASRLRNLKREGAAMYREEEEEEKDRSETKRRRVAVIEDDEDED

[5] = molecular target: T5, Ctr9 (full length, C-terminal hexahistidine tag) (S. cerevisiae, UniProt P89105 1-1077); assay: co-purification after coexpression (Ni-NTA, cation exchange, SEC); subunits coexpressed in E. coli from three vectors, cells colysed; Ni-NTA (hexahistidine tag on Ctr9), HiTrap SP cation exchange, Superose 6 size exclusion; SDS-PAGE, subunits confirmed by mass spectrometry; details: partners not purified
T5 construct: Ctr9, S. cerevisiae, full length, amplified from genomic DNA, in pET24b; source: E. coli BL21 CodonPlus(DE3)RIL, coexpressed with the other subunits; in lysate and purified as part of Paf1C; not shown: His6, C-terminal, kept
T5 sequence (looked up): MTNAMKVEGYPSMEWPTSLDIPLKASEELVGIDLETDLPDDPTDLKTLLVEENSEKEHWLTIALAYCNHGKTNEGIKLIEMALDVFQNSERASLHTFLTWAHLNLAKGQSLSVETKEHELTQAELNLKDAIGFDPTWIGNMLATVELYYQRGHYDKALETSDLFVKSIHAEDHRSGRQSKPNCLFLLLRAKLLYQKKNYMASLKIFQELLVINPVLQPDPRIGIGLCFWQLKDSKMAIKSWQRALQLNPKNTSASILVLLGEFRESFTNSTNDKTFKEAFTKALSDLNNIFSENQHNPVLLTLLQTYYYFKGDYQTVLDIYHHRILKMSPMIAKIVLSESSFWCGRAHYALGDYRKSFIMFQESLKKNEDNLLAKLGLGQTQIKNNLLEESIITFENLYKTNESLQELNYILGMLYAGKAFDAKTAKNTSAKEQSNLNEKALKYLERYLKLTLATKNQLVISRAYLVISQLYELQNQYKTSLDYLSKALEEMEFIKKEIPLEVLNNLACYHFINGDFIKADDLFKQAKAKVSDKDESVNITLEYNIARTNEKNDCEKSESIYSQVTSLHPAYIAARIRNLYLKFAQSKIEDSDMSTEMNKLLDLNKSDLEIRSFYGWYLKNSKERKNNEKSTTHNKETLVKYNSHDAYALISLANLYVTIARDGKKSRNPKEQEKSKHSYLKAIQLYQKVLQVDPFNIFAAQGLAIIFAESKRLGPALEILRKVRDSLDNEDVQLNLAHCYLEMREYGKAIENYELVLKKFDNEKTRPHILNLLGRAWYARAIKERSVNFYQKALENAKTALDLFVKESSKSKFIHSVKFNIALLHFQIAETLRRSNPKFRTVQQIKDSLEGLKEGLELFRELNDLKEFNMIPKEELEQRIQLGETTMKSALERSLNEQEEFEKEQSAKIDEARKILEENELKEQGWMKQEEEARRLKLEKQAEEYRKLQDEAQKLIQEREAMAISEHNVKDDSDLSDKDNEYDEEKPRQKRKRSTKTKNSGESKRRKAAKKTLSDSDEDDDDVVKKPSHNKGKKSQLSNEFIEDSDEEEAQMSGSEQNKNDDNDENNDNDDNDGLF

T2 sequence (P53064 whole entry): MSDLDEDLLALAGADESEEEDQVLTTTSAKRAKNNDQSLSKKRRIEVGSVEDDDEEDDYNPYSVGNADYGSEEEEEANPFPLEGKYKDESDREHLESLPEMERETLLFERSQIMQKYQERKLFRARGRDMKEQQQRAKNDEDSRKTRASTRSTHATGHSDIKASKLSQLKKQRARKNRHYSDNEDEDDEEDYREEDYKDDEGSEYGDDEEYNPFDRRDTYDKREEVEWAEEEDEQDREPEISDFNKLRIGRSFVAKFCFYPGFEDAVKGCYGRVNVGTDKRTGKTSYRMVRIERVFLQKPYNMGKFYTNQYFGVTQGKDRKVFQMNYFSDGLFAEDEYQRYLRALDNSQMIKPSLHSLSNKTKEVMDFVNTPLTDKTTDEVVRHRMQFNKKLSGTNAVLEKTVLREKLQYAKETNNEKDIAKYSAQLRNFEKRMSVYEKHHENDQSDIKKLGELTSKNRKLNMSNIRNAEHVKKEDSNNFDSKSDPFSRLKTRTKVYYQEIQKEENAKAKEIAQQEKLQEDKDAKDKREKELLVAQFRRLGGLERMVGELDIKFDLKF
T3 sequence (P08518 whole entry): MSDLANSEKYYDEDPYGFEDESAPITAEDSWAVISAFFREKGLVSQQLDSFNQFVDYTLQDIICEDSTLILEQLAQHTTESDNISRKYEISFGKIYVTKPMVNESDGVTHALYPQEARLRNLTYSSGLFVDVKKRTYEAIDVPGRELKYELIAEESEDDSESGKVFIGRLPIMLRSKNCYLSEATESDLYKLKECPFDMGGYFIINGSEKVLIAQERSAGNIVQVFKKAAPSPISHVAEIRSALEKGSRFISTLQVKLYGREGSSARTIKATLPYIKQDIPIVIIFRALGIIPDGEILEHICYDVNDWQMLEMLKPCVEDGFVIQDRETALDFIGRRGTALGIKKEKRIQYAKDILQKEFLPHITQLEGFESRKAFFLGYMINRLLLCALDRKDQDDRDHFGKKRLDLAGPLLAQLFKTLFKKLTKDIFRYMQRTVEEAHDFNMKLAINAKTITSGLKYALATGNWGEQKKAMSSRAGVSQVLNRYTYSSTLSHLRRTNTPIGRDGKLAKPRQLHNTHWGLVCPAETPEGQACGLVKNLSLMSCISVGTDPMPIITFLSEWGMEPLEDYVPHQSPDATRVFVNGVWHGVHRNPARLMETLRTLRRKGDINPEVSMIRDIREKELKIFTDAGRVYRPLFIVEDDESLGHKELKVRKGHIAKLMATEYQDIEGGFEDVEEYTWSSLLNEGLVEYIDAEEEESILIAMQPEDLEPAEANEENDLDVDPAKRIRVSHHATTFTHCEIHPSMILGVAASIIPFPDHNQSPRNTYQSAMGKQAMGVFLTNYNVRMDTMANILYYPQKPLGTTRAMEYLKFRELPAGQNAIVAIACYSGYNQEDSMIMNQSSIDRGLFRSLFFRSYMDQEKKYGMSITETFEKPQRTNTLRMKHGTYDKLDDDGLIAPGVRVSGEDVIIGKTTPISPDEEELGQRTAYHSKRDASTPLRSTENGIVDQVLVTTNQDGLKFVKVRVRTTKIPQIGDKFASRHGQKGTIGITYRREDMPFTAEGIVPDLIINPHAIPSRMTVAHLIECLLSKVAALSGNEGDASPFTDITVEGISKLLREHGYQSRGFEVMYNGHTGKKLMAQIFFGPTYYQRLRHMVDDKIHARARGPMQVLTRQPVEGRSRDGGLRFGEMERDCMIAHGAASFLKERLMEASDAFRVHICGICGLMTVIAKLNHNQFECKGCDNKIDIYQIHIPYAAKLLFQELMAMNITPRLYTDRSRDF

binding result [1]: binds
binding result [2]: binds
binding result [3]: binds
binding result [4]: binds
binding result [5]: binds
B1: Paf1 (natural protein, S. cerevisiae, UniProt P38351 1-445, looked up)
chain: MSKKQEYIAPIKYQNSLPVPQLPPKLLVYPESPETNADSSQLINSLYIKTNVTNLIQQDEDLGMPVDLMKFPGLLNKLDSKLLYGFDNVKLDKDDRILLRDPRIDRLTKTDISKVTFLRRTEYVSNTIAAHDNTSLKRKRRLDDGDSDDENLDVNHIISRVEGTFNKTDKWQHPVKKGVKMVKKWDLLPDTASMDQVYFILKFMGSASLDTKEKKSLNTGIFRPVELEEDEWISMYATDHKDSAILENELEKGMDEMDDDSHEGKIYKFKRIRDYDMKQVAEKPMTELAIRLNDKDGIAYYKPLRSKIELRRRRVNDIIKPLVKEHDIDQLNVTLRNPSTKEANIRDKLRMKFDPINFATVDEEDDEDEEQPEDVKKESEGDSKTEGSEQEGENEKDEEIKQEKENEQDEENKQDENRAADTPETSDAVHTEQKPEEEKETLQEE
notes: Paf1, S. cerevisiae, open reading frame chemically synthesized (codon-optimised), in pCDFDuet-1; also called polymerase-associated factor 1; source: E. coli BL21 CodonPlus(DE3)RIL, coexpressed with the other subunits; in lysate and purified as part of Paf1C
